Test results from publication PMC8183676 (Molecular cell, 2020).

Key:
[1] = target: T1, TRIM14^CC-PSpry (human, UniProt Q14142 59-442); experiment: pull-down
T1 sequence (looked up): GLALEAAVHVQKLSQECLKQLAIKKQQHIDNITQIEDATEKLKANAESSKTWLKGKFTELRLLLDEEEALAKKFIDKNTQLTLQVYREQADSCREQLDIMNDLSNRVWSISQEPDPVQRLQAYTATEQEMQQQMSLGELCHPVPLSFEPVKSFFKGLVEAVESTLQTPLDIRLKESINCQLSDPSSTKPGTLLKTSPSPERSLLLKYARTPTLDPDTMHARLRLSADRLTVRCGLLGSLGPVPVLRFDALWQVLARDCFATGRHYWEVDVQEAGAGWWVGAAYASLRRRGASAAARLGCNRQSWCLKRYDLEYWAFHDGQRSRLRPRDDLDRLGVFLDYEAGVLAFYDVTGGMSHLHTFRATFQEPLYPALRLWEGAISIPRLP

[2] = target: T2, LGP2 (human, UniProt Q96C10 1-678); experiment: native gel or EMSA
T2 sequence (looked up): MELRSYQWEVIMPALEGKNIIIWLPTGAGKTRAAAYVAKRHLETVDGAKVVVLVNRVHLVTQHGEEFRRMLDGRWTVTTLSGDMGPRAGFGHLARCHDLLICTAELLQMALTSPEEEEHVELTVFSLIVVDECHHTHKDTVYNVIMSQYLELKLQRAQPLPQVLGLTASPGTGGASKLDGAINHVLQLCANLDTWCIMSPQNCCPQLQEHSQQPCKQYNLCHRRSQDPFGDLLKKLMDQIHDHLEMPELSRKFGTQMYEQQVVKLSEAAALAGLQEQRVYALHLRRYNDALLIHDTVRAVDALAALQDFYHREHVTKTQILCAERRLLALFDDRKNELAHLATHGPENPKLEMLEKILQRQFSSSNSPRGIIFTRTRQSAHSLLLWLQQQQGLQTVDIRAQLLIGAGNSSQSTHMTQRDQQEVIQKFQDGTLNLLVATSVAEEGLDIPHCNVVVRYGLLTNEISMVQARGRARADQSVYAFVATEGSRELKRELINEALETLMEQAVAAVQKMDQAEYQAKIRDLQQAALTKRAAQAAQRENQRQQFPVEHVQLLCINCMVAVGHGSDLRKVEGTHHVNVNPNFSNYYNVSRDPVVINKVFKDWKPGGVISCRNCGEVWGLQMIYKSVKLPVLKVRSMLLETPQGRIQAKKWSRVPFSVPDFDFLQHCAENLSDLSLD

[3] = target: T3, LGP2 (UniProt Q96C10 1-678); experiment: EMSA
T3 sequence: T2 sequence (looked up)

[4] = target: T4, MDA5ΔN (human, UniProt Q9BYX4 287-1025); experiment: native gel or EMSA
T4 sequence (looked up): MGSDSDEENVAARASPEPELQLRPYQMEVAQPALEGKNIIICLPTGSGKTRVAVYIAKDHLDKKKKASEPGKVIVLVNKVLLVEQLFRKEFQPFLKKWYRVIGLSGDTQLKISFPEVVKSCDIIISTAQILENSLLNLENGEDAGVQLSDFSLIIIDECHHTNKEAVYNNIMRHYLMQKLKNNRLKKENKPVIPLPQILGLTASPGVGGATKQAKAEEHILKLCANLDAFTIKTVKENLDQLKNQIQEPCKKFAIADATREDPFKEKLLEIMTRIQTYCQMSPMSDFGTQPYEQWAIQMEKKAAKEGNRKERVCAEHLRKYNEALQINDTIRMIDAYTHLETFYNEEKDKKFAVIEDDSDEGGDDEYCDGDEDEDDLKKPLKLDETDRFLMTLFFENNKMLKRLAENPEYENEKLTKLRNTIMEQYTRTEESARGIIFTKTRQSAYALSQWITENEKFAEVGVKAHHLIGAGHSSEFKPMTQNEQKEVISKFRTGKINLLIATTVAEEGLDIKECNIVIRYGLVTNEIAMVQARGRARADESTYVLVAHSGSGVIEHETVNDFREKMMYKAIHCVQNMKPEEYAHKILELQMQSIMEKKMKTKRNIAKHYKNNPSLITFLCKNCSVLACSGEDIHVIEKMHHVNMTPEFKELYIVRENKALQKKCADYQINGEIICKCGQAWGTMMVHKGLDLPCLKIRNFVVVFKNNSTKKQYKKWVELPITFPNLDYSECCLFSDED

[5] = target: T5, MDA5ΔN, fluorescein-labelled (human, UniProt Q9BYX4 287-1025, fluorescein-conjugated peptide (LPETGG) joined to the N-terminus with sortase A); experiment: native gel or EMSA
T5 sequence (looked up): T4 sequence (looked up)

[6] = target: T6, full-length MDA5, fluorescein-labelled (human, UniProt Q9BYX4 1-1025, fluorescein-conjugated peptide (LPETGG) joined to the N-terminus with sortase A); experiment: native gel or EMSA
T6 sequence (looked up): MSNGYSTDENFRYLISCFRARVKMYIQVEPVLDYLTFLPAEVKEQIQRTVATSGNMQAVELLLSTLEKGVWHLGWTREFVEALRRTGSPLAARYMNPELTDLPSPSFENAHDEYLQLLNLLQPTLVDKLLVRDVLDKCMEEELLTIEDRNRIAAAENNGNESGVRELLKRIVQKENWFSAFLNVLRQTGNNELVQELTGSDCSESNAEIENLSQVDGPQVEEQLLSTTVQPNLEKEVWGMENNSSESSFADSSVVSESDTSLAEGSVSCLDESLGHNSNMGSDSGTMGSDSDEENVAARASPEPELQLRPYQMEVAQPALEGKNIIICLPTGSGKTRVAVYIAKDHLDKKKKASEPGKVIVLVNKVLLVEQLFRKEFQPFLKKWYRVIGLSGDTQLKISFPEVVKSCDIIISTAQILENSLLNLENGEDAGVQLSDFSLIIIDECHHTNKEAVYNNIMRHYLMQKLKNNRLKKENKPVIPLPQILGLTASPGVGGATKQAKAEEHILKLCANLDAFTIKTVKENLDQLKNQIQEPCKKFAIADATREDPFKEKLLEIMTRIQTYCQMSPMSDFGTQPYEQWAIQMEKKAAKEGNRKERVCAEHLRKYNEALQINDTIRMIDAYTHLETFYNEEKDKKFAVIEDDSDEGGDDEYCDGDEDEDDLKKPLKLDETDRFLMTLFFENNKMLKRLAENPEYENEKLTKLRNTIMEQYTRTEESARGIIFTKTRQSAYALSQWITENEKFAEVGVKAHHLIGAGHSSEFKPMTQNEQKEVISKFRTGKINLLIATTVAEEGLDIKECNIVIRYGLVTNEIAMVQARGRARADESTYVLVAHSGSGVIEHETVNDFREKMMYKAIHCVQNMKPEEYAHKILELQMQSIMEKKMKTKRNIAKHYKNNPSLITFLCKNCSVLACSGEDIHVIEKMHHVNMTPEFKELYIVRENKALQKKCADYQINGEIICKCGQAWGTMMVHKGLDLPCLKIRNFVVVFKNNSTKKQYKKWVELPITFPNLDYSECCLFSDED

[7] = target: T7, GST-MDA5ΔN (human, UniProt Q9BYX4 287-1025); experiment: native gel or EMSA
T7 sequence (looked up): T4 sequence (looked up)

[8] = target: the molecule itself; experiment: SEC-MALS

B1: GST-LGP2^Hel2i2 (domain or fragment, human, UniProt Q96C10 211-487, looked up)
chain: SQQPCKQYNLCHRRSQDPFGDLLKKLMDQIHDHLEMPELSRKFGTQMYEQQVVKLSEAAALAGLQEQRVYALHLRRYNDALLIHDTVRAVDALAALQDFYHREHVTKTQILCAERRLLALFDDRKNELAHLATHGPENPKLEMLEKILQRQFSSSNSPRGIIFTRTRQSAHSLLLWLQQQQGLQTVDIRAQLLIGAGNSSQSTHMTQRDQQEVIQKFQDGTLNLLVATSVAEEGLDIPHCNVVVRYGLLTNEISMVQARGRARADQSVYAFVATEGS
binding result [1]: binds

B2: GST-TRIM14^PSpry (domain or fragment, human, UniProt Q14142 238-442, looked up)
chain: QLSDPSSTKPGTLLKTSPSPERSLLLKYARTPTLDPDTMHARLRLSADRLTVRCGLLGSLGPVPVLRFDALWQVLARDCFATGRHYWEVDVQEAGAGWWVGAAYASLRRRGASAAARLGCNRQSWCLKRYDLEYWAFHDGQRSRLRPRDDLDRLGVFLDYEAGVLAFYDVTGGMSHLHTFRATFQEPLYPALRLWEGAISIPRLP
binding result [2]: binds

B3: 15 bp dsRNA (dsRNA)
RNA 1: AGGGCCCGGGAUGCU
RNA 2: AGCAUCCCGGGCCCU
binding result [3]: binds

B4: TRIM65 (natural protein, human, UniProt Q6PJ69 1-517, looked up)
chain: MAAQLLEEKLTCAICLGLYQDPVTLPCGHNFCGACIRDWWDRCGKACPECREPFPDGAELRRNVALSGVLEVVRAGPARDPGPDPGPGPDPAARCPRHGRPLELFCRTEGRCVCSVCTVRECRLHERALLDAERLKREAQLRASLEVTQQQATQAEGQLLELRKQSSQIQNSACILASWVSGKFSSLLQALEIQHTTALRSIEVAKTQALAQARDEEQRLRVHLEAVARHGCRIRELLEQVDEQTFLQESQLLQPPGPLGPLTPLQWDEDQQLGDLKQLLSRLCGLLLEEGSHPGAPAKPVDLAPVEAPGPLAPVPSTVCPLRRKLWQNYRNLTFDPVSANRHFYLSRQDQQVKHCRQSRGPGGPGSFELWQVQCAQSFQAGHHYWEVRASDHSVTLGVSYPQLPRCRLGPHTDNIGRGPCSWGLCVQEDSLQAWHNGEAQRLPGVSGRLLGMDLDLASGCLTFYSLEPQTQPLYTFHALFNQPLTPVFWLLEGRTLTLCHQPGAVFPLGPQEEVLS
binding result [4]: binds
binding result [5]: binds
binding result [6]: binds

B5: TRIM65 CC-PSpry, fluorescein-labelled (domain or fragment, human, UniProt Q6PJ69 125-517, looked up)
chain: HERALLDAERLKREAQLRASLEVTQQQATQAEGQLLELRKQSSQIQNSACILASWVSGKFSSLLQALEIQHTTALRSIEVAKTQALAQARDEEQRLRVHLEAVARHGCRIRELLEQVDEQTFLQESQLLQPPGPLGPLTPLQWDEDQQLGDLKQLLSRLCGLLLEEGSHPGAPAKPVDLAPVEAPGPLAPVPSTVCPLRRKLWQNYRNLTFDPVSANRHFYLSRQDQQVKHCRQSRGPGGPGSFELWQVQCAQSFQAGHHYWEVRASDHSVTLGVSYPQLPRCRLGPHTDNIGRGPCSWGLCVQEDSLQAWHNGEAQRLPGVSGRLLGMDLDLASGCLTFYSLEPQTQPLYTFHALFNQPLTPVFWLLEGRTLTLCHQPGAVFPLGPQEEVLS
modifications: fluorescein-conjugated peptide (LPETGG) joined to the N-terminus with sortase A
binding result [7]: binds

B6: TRIM65 CC-PSpry (domain or fragment, human, UniProt Q6PJ69 125-517, looked up)
chain: B5 chain
Kd [4]: 171 nM
stoichiometry N [8]: 2
